T1: Human MAdCAM (human, UniProt Q13477 19-317, limits assumed)
T1 construct: also called huMAdCAM; human MAdCAM-1
T1 sequence (looked up): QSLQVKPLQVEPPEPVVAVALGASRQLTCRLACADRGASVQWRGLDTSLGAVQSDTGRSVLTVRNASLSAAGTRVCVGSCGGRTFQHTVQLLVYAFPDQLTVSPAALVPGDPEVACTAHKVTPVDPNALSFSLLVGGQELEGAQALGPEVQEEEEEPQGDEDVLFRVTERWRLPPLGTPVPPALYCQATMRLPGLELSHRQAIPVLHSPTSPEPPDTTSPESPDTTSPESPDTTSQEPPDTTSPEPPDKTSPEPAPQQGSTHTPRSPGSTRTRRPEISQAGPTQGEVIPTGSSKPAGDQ


Columns and labels:
[1] = target: T1, Human MAdCAM; experiment: BLI Octet, AHC capture
[2] = target: T2, Insulin (UniProt P01308 25-54; P01308 90-110); experiment: ELISA on insulin-coated plate
T2 construct: Polyreactivity antigen; mature insulin has A and B chains; also called human insulin

[3] = target: T2, Insulin; experiment: ELISA on insulin-coated plate, 100 nM
Experimental: Non-specific DNA and Insulin binding is predictive of poor pharmacokinetics (PK). An immunosorbent plate was coated with dsDNA at a concentration of 1 μg/mL or Insulin at 5 μg/mL in PBS pH 7.4, 75 μl/well, and incubated overnight at 4° C. Wells were washed with PBS pH 7.4 containing 0.05% Tween-20 (wash buffer) three times, and then blocked with 200 μl/well 1% BSA in PBS pH 7.4 (block buffer) for two hours at room temperature. […] The diluted material was added to the DNA/insulin coated plate at 75 μl/well for 1 hour at room temperature. After three washes with wash buffer, a donkey anti-human FcY HRP conjugated polyclonal antibody, diluted to 1:5000 in assay buffer, was added to the plate at 75 μl/well for 1 hr at room temperature. After three washes with wash buffer and three washes with wash buffer (with no tween-20), the assay was developed with TMB, and stopped with 1N HCL. OD 450 nm was measured. The experiment included appropriate controls for non-specific binding of test articles to the plate/block in the absence of DNA or insulin.

Kd [1] | koff [1] | kon [1] | binding result [2] | Insulin polyreactivity score [3] | binding result [1] | Binder
2.69 µM | 0.314 s⁻¹ | 117000 M⁻¹ s⁻¹ | no binding (tested: 100 nM) | 3.63 |  | MIAB148 (antibody, human IgG1, kappa) heavy: EVQLLESGGGLVQPGGSLRLSCAASGFTFSDFWMHWVRQAPGKGLEWISYISGDSGYTNYADSVKGRFTISRDNSKNTLYLQMNSLRAEDTAVYYCARDRPYYYYMDVWGKGTTVTVSSASTKGPSVFPLAPSSKSTSGGTAALGCLVKDYFPEPVTVSWNSGALTSGVHTFPAVLQSSGLYSLSSVVTVPSSSLGTQTYICNVNHKPSNTKVDKKVEPKSCDKTHTCPPCPAPEAAGAPSVFLFPPKPKDTLMISRTPEVTCVVVDVSHEDPEVKFNWYVDGVEVHNAKTKPREEQYNSTYRVVSVLTVLHQDWLNGKEYKCKVSNKALPAPIEKTISKAKGQPREPQVYTLPPSREEMTKNQVSLTCLVKGFYPSDIAVEWESNGQPENNYKTTPPVLDSDGSFFLYSKLTVDKSRWQQGNVFSCSVMHEALHNHYTQKSLSLSPGGGGGSAPTSSSTKKTQLQLEHLLLDLQMILNGINNYKNPKLTRMLTFKFYMPKKATELKHLQCLEEELKPLEEALNLAPSKNFHLRPRDLISDINVIVLELKGSETTFMCEYADETATIVEFINRWITFSQSIISTLT light: not shown
 |  |  | no binding (tested: 100 nM) | 1.99 |  | MIAB155 (antibody, human IgG1, kappa) heavy: EVQLLESGGGLVQPGGSLRLSCAASGFTFSDFWMHWVRQAPGKGLEWISYISGDSGYTNYADSVKGRFTISRDNSKNTLYLQMNSLRAEDTAVYYCARDRPYYYYMDVWGKGTTVTVSSASTKGPSVFPLAPSSKSTSGGTAALGCLVKDYFPEPVTVSWNSGALTSGVHTFPAVLQSSGLYSLSSVVTVPSSSLGTQTYICNVNHKPSNTKVDKKVEPKSCDKTHTCPPCPAPEAAGAPSVFLFPPKPKDTLMISRTPEVTCVVVDVSHEDPEVKFNWYVDGVEVHNAKTKPREEQYNSTYRVVSVLTVLHQDWLNGKEYKCKVSNKALPAPIEKTISKAKGQPREPQVYTLPPSREEMTKNQVSLTCLVKGFYPSDIAVEWESNGQPENNYKTTPPVLDSDGSFFLYSKLTVDKSRWQQGNVFSCSVMHEALHNHYTQKSLSLSPGGGGGSAPTSSSTKKTQLQLEHLLLDLQMILNGINNYKNPKLTRMLTFKFYMPKKATELKHLQCLEEELKPLEEALNLAPSKNFHLRPRDLISDINVIVLELKGSETTFMCEYADETATIVEFINRWITFSQSIISTLT light: not shown
 |  |  | no binding (tested: 100 nM) | 4.73 | no binding (tested: 1 µM) | MIAB170 (antibody, human IgG1, kappa) heavy: EVQLLESGGGLVQPGGSLRLSCAASGFTFSDFWMHWVRQAPGKGLEWISYISGDSGYTNYADSVKGRFTISRDNSKNTLYLQMNSLRAEDTAVYYCARDRPYYYWMDVWGKGTTVTVSSASTKGPSVFPLAPSSKSTSGGTAALGCLVKDYFPEPVTVSWNSGALTSGVHTFPAVLQSSGLYSLSSVVTVPSSSLGTQTYICNVNHKPSNTKVDKKVEPKSCDKTHTCPPCPAPEAAGAPSVFLFPPKPKDTLMISRTPEVTCVVVDVSHEDPEVKFNWYVDGVEVHNAKTKPREEQYNSTYRVVSVLTVLHQDWLNGKEYKCKVSNKALPAPIEKTISKAKGQPREPQVYTLPPSREEMTKNQVSLTCLVKGFYPSDIAVEWESNGQPENNYKTTPPVLDSDGSFFLYSKLTVDKSRWQQGNVFSCSVMHEALHNHYTQKSLSLSPGGGGGSAPTSSSTKKTQLQLEHLLLDLQMILNGINNYKNPKLTRMLTFKFYMPKKATELKHLQCLEEELKPLEEALNLAPSKNFHLRPRDLISDINVIVLELKGSETTFMCEYADETATIVEFINRWITFSQSIISTLT light: DIQMTQSPSSLSASVGDRVTITCRASQSVSRSLAWYQQKPGKAPKLLIYAASSLQSGVPSRFSGSGSGTDFTLTISSLQPEDFATYYCQQYKSYPVTFGQGTKVEIKRTVAAPSVFIFPPSDEQLKSGTASVVCLLNNFYPREAKVQWKVDNALQSGNSQESVTEQDSKDSTYSLSSTLTLSKADYEKHKVYACEVTHQGLSSPVTKSFNRGEC
 |  |  | no binding (tested: 100 nM) | 2.67 |  | MIAB158 (antibody, human IgG1, kappa) heavy: EVQLLESGGGLVQPGGSLRLSCAASGFTFSDFWMHWVRQAPGKGLEWISYISGDSGYTNYADSVKGRFTISRDNSKNTLYLQMNSLRAEDTAVYYCARDRPYYYYMDVWGKGTTVTVSSASTKGPSVFPLAPSSKSTSGGTAALGCLVKDYFPEPVTVSWNSGALTSGVHTFPAVLQSSGLYSLSSVVTVPSSSLGTQTYICNVNHKPSNTKVDKKVEPKSCDKTHTCPPCPAPEAAGAPSVFLFPPKPKDTLMISRTPEVTCVVVDVSHEDPEVKFNWYVDGVEVHNAKTKPREEQYNSTYRVVSVLTVLHQDWLNGKEYKCKVSNKALPAPIEKTISKAKGQPREPQVYTLPPSREEMTKNQVSLTCLVKGFYPSDIAVEWESNGQPENNYKTTPPVLDSDGSFFLYSKLTVDKSRWQQGNVFSCSVMHEALHNHYTQKSLSLSPGGGGGSAPTSSSTKKTQLQLEHLLLDLQMILNGINNYKNPKLTRMLTFKFYMPKKATELKHLQCLEEELKPLEEALNLAPSKNFHLRPRDLISDINVIVLELKGSETTFMCEYADETATIVEFINRWITFSQSIISTLT light: not shown
8.36 µM | 0.543 s⁻¹ | 64800 M⁻¹ s⁻¹ | no binding (tested: 100 nM) | 2.46 |  | MIAB153 (antibody, human IgG1, kappa) heavy: EVQLLESGGGLVQPGGSLRLSCAASGFTFSDFWMHWVRQAPGKGLEWISYISGDSGYTNYADSVKGRFTISRDNSKNTLYLQMNSLRAEDTAVYYCARDRPYYYYMDVWGKGTTVTVSSASTKGPSVFPLAPSSKSTSGGTAALGCLVKDYFPEPVTVSWNSGALTSGVHTFPAVLQSSGLYSLSSVVTVPSSSLGTQTYICNVNHKPSNTKVDKKVEPKSCDKTHTCPPCPAPEAAGAPSVFLFPPKPKDTLMISRTPEVTCVVVDVSHEDPEVKFNWYVDGVEVHNAKTKPREEQYNSTYRVVSVLTVLHQDWLNGKEYKCKVSNKALPAPIEKTISKAKGQPREPQVYTLPPSREEMTKNQVSLTCLVKGFYPSDIAVEWESNGQPENNYKTTPPVLDSDGSFFLYSKLTVDKSRWQQGNVFSCSVMHEALHNHYTQKSLSLSPGGGGGSAPTSSSTKKTQLQLEHLLLDLQMILNGINNYKNPKLTRMLTFKFYMPKKATELKHLQCLEEELKPLEEALNLAPSKNFHLRPRDLISDINVIVLELKGSETTFMCEYADETATIVEFINRWITFSQSIISTLT light: not shown
2.96 µM | 0.292 s⁻¹ | 98700 M⁻¹ s⁻¹ | no binding (tested: 100 nM) | 3.63 |  | MIAB151 (antibody, human IgG1, kappa) heavy: EVQLLESGGGLVQPGGSLRLSCAASGFTFSDFWMHWVRQAPGKGLEWISYISGDSGYTNYADSVKGRFTISRDNSKNTLYLQMNSLRAEDTAVYYCARDRPYYYYMDVWGKGTTVTVSSASTKGPSVFPLAPSSKSTSGGTAALGCLVKDYFPEPVTVSWNSGALTSGVHTFPAVLQSSGLYSLSSVVTVPSSSLGTQTYICNVNHKPSNTKVDKKVEPKSCDKTHTCPPCPAPEAAGAPSVFLFPPKPKDTLMISRTPEVTCVVVDVSHEDPEVKFNWYVDGVEVHNAKTKPREEQYNSTYRVVSVLTVLHQDWLNGKEYKCKVSNKALPAPIEKTISKAKGQPREPQVYTLPPSREEMTKNQVSLTCLVKGFYPSDIAVEWESNGQPENNYKTTPPVLDSDGSFFLYSKLTVDKSRWQQGNVFSCSVMHEALHNHYTQKSLSLSPGGGGGSAPTSSSTKKTQLQLEHLLLDLQMILNGINNYKNPKLTRMLTFKFYMPKKATELKHLQCLEEELKPLEEALNLAPSKNFHLRPRDLISDINVIVLELKGSETTFMCEYADETATIVEFINRWITFSQSIISTLT light: not shown
 |  |  | no binding (tested: 100 nM) | 8.43 |  | MIAB204 (Fc fusion) APTSSSTKKTQLQLEHLLLDLQMILNGINNYKNPKLTRMLTFKFYMPKKATELKHLQCLEEELKPLEEALNLAPSKNFHLRPRDLISDINVIVLELKGSETTFMCEYADETATIVEFINRWITFSQSIISTLTGGGGSGGGGSGGGGSGGGGSDKTHTCPPCPAPEAAGAPSVFLFPPKPKDTLMISRTPEVTCVVVDVSHEDPEVKFNWYVDGVEVHNAKTKPREEQYNSTYRVVSVLTVLHQDWLNGKEYKCKVSNKALPAPIEKTISKAKGQPREPQVYTLPPSREEMTKNQVSLTCLVKGFYPSDIAVEWESNGQPENNYKTTPPVLDSDGSFFLYSKLTVDKSRWQQGNVFSCSVMHEALHNHYTQKSLSLSPGGGGGSGGGGSGGGGSEVQLLESGGGLVQPGGSLRLSCAASGFTFSDFWMHWVRQAPGKGLEWISYISGDSGYTNYADSVKGRFTISRDNSKNTLYLQMNSLRAEDTAVYYCARDRPYYYYMDVWGKGTTVTVSSGGGGSGGGGSGGGGSGGGGSDIQMTQSPSSLSASVGDRVTITCRASQSVSRSLAWYQQKPGKAPKLLIYAASSLQSGVPSRFSGSGSGTDFTLTISSLQPEDFATYYCQQYKSYPVTFGQGTKVEIK

From patent US20240132591A1 (PANDION OPERATIONS, published 2024)
